Substitutions are numbered along the chain they refer to.
B1: Hu-14 (antibody, V domains shown)
VH: EVQLLESGGGLVQPGGSLRLSCAASGITFSSYAMSWVRQVPGKGLEWVSVISGSGGSTYYADSVKGRFTISRDNSKNTLYLQMNSLRAEDTAVYYCAKDRGYDILTTYYDYFYGMDVWGQPEFQHTGG
VL: DIQMTQSPSSLSASVGDRVIITCRASQGIRNDLGWYQQKPGKAPKRLIYAASSLQSGVPSRFSGSGSGTEFTLTISSLQPEDLASYYCLQHNSYPYTFGQGTKLEIK
B2: Hu-16 (antibody, V domains shown)
VH: EVQLLESGGGVVQPGGSLRLSCAASGLIFSSYAMSWVRQAPGKGLEWVSVIGGSGSNTFYADSVKGRFTISRDNSKNTLFLQMNSLRAEDTAVYYCAKDRGYDILTGYYNYYYGMDVWGQGITVTVSS
VL: B1 VL with I20T, L83F, S85T
B3: Hu-5 (antibody, V domains shown)
VH: QVQLVQSGAEVKKPGASVKVSCEASGYTFTSSYMHWVRQAPGQGLEWMGIINPSGGRTNYAQKFQGRVTMTRDTSTSTVYMELSSLRSEDTAVYYCARDHYDIFTTYYPRGMDVWGQGTTVTVSS
VL: B1 VL with I20T, L83F, A84T, S85T, Y94F, Y96F, K103E, K107R
B4: Ms13 (antibody, V domains shown)
VH: EVQLQQSGPELVKPGASVKMSCKASGYTFTRYIMHWVKQKPGQGLEWIGYFNPYNDDSKTSEKFKGKATLTSDKSSSTAYMEINSLTSEDSAVYYCAKLRQERIAYWGQGTLVTVSA
VL: DIQMNQSPSSLSASLGDTITITCHASQNIDVWLSWYQQKPGNFPKLLIYKASNLHTGVPSRFSGSGSGTGFTLTISSLQPEDIATYYCQQGQSYPLTFGAGTKLELK
B5: Ms17 (antibody, V domains shown)
VH: B4 VH with R31N, M34I, D57G, S58I, K59E, T60Y, I83L, N84S, A97S, I104F
VL: B4 VL with D30N, F43I
B6: Ms15 (antibody, V domains shown)
VH: EVQLQQSGPELVRPGASVKMSCRASGYTFTNYIIHWVKQKPGQGLEWIGYFNPYNDGTKYNEIFKDKATLTSDKSSSTAYMELRSLTSEDSAVYYCAKLRQERIAYWGQGTLVTVSA
VL: B4 VL with A25V, F43I
B7: Ms5 (antibody, V domains shown)
VH: QVQLQQPGAELVKPGASVKLSCKASGYTFTRYLMHWVKQRPGQGLEWIGEINPSNGRTNYNEKFKSKAALTVDKSSSTAYMQLSSLTSEDSAVYYCARLAYGYGNAVDYWGQGTSVTVSS
VL: DIVMTQSPSSLSVSAGEKVTMSCKSSQSLLNSGNQKNYLAWYQQKPGQPPKLLIYGASTRESGVPDRFTGSGSGTDFTLTISSVQAEDLAVYYCQNDHSYPLTFGAGTKLELK
B8: Ms10 (antibody, V domains shown)
VH: EVQLQQSGPELEKPGASVKISCKASGYSFTGYKMNWVKQSNGKSLEWIGHIDPYYGGPRYNKKFMGKATLTVDRSSSTAYMQLKSLTSEDSAVYYCARLDYGNSFAYWGQGTLVTVSA
VL: B7 VL with L102F, A106G, L112I
B9: Ms6 (antibody, V domains shown)
VH: QVQLQQSGAELAKPGASVKMSCRASGYTFTSYLMHWIKQRPGQALEWIGYINPTTDYTEYNQKFKGKATLTADKSSSTAYMQLSSLTSEDSAVYYCGRLGYYKRNAMDHWGQGTSVTVSS
VL: B7 VL with S99F
B10: Ms12 (antibody, V domains shown)
VH: EIQLQQSGPELVKPGASVKVSCKASGYAFASYKMYWVKQSHGKSLEWIGYIDPYNGVTSYNQKFRGKATLTVDKSSSTAYMHLNSLTSEDSAVYYCARGAYYGNSFDYWGQGTTLTVSS
VL: DIVMTQSPSSLTVTAGEKVTMSCKSSQSLLNSGNQKNYLTWYQQQPGQPPKLLIYWASTRESGVPDRFTGSGSGTDFTLTISSVQAVDLAVYYCQSAYSFPYTFGGGTKLEVK
B11: Ms1 (antibody, V domains shown)
VH: EIQLQQSGPELVKPGASVKVSCKASGYAYTRYNMYWVKQSHGKSLEWIGYIDPYNGGTNYNQKFKGKATLTVDKSSSTAYMHLNSLTSEDSAVYYCARGGYYGNAMDYWGQGTSVTVSS
VL: DIVMTQSPSSLTVTAGEKVTMSCKSSQSLLNSGNQKNYLTWYQQKPGQPPKLLIYWASTRESGVPDRFTGSGSGTDFTLTISSVQAEDLSIYYCQSNYIYPFTFGAGTTLELQ
B12: Ms7 (antibody, V domains shown)
VH: EVKLVESGGDLVQPGGSLRLSCTTPGFTFSDFYMEWVRQPPGKRLEWIAASRNKANDYTTENSASVKGRFIVSRDTSQSILYLQMNALRAEDTAIYYCARDACPWDWFAYWGQGTLVTVSA
VL: B7 VL with S12T, S14T, A40T, G56W, H98Y, L102F, A106S, L112I
B13: Ms3 (antibody, V domains shown)
VH: EVMLVESGGGIVKPGGSLKLSCAASGFTLSSYTMSWVRQTPERRLEWVATIIIGGSYTYYPDSVKGRFTISRDNAKNTLYLQMSSLRSEDTAMYYCARQGYGNSFPYWGQGTLVTVSA
VL: B7 VL with S12T, S14T, A40T, G56W, H98Y, L102F, A106S, L112I
B14: Ms8 (antibody, V domains shown)
VH: B11 VH with G26D, Y29F
VL: B11 VL with K51Q
B15: NBL-014G (antibody, human IgG1, kappa, V domains shown)
VH: EVQLLESGGGLVQPGGSLRLSCAASGFTFSSFAMTWVRQAPGKGLEWVSSLSGSGRSTYYAASMKGRFTISRDNSKNTLYLQMNSLRAEDTAIYYCAKSLSYYHYYFDYWGQGTLVTVTS
VL: DIQLTQSPSFLSASVGDRVPITCRASQGISNFLAWYQQKPGKAPELLIHSASTLQSGVPSRFSGSGSGTEFTLTISNLQPQDFATYYCQQVNSYPLTFGGGTKVEIKR
modifications: low, or no IgG core fucose (non- or afucosylated)
B16: NBL-014 (antibody, human IgG1, kappa, V domains shown)
VH: B15 VH
VL: B15 VL

The binders below were run against human claudin 18 isoform 2 (claudin 18.2) (human) (assay: cell-based or functional assay).
In the case of B1, the “ADCC EC50, CHO-18.2 target cells (mouse FcγRIV reporter bioluminescence)” value (“ADCC EC50, CHO-18.2 target cells” for short) is reported as 1.51 nM. With B2 the “ADCC EC50, CHO-18.2 target cells” value was 3.09 nM. For B3, the “ADCC EC50, CHO-18.2 target cells” value was 7.09 nM.

These binders were tested against T1, human claudin 18 isoform 1 (claudin 18.1) (human, UniProt P56856 1-261) (assay: imaging, CHO-CLDN18.1 cells, single concentration (FIG. 3A)).
T1 construct: Recombinant on transfected CHO cells (CHO-CLDN18.1); also called CLDN18.1
T1 sequence (P56856 whole entry, canonical isoform): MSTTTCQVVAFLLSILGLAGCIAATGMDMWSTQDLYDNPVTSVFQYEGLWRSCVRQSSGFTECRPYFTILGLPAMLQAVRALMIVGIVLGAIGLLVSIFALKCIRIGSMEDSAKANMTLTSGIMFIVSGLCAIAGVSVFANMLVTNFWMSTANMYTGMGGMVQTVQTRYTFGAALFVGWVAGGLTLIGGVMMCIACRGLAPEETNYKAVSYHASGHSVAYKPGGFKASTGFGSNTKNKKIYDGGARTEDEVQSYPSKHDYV
Experimental: (§1) The specific cellular binding affinity of anti-Claudin18.2 antibodies was tested on CHO-CLDN18.2 (transfected CHO cell expressing recombinant human CLDN18.2) and CHO-CLDN18.1 (transfected CHO cell expressing recombinant human CLDN18.1) cells. The cells were plated in complete media containing F12 with 10% FBS, then incubated overnight at 37° C., anti-Claudin18.2 antibodies were serial diluted and added to the assay plates, incubated at 4° C. for 2 hours, followed by fixing cells and further staining the cells for 30 minutes with Alexa Fluor® 488 Goat Anti-Human IgG (H+L) secondary antibody, invitrogen Cat #A-11013 for detection. The binding was assessed by imaging the cells and quantifying the fluorescence intensity using a Biotek Cytation.
B4: no binding (tested: 10 µg/ml). B5: no binding (tested: 10 µg/ml). B6: no binding (tested: 10 µg/ml).

Target: human claudin 18 isoform 2 (claudin 18.2) (human)
Experiment: cell-based or functional assay
Remark: another data set of the same source
B1 was tested, and the “endocytosis derived cell toxicity EC50, CHO-18.2 cells (anti-IgG Fc-MMAF co-internalization)” value (“endocytosis derived cell toxicity EC50” for short) was 1.51 nM. B2 was tested, and the “endocytosis derived cell toxicity EC50” value was 3.09 nM. With B3 the “endocytosis derived cell toxicity EC50” value was 13.4 nM.

These binders were tested against T1, human claudin 18 isoform 1 (claudin …) (assay: immunofluorescence imaging on CHO cells expressing human CLDN18.1, antibody at 10 µg/ml).
Experimental: as §1
B7: no binding (tested: 10 µg/ml). B8: no binding (tested: 10 µg/ml). B9: no binding (tested: 10 µg/ml). B10: no binding (tested: 10 µg/ml). B11: no binding (tested: 10 µg/ml). B12: no binding (tested: 10 µg/ml). B13: no binding (tested: 10 µg/ml). B14: no binding (tested: 10 µg/ml). B2: no binding (tested: 10 µg/ml). B3: no binding (tested: 10 µg/ml).

What follows are binders tested against T2, human claudin 18 isoform 2 (claudin 18.2) (human) (assay: imaging, PATU8988S cells (endogenous CLDN18.2); +++ = EC50 between 2 nM and 20 nM).
T2 construct: Recombinant on transfected CHO cells (CHO-CLDN18.2) or endogenous on tumor cell lines PATU8988S, NUGC-4, KATOIII; the cell line is named under assay; also called CLDN18.2
With B7 the EC50 was 2 to 20 nM. B8 showed an EC50 of 2 to 20 nM. Binder B9 has an EC50 of 2 to 20 nM. For B4, the EC50 was 2 to 20 nM. For B5, the EC50 was 2 to 20 nM. Work on B6 yielded an EC50 of 2 to 20 nM. Binder B10 has an EC50 of 2 to 20 nM. Binder B11 has an EC50 of 2 to 20 nM. Work on B12 yielded an EC50 of 2 to 20 nM. B13 showed an EC50 of 2 to 20 nM. With B14 the EC50 was 2 to 20 nM.

These binders were tested against T2, human claudin 18 isoform 2 (claudin …) (assay: immunofluorescence imaging, CHO-CLDN18.2 cells, serial dilution).
Experimental: as §1
For B7, the EC50 was 1.7 nM. In the case of B8, the EC50 is reported as 1.3 nM. Work on B9 yielded an EC50 of 1.2 nM. B4 was tested, and the EC50 was 1.2 nM. B5 gave an EC50 of 1.4 nM. In the case of B6, the EC50 is reported as 1.8 nM. B10 showed an EC50 of 2 nM. B11 showed an EC50 of 1.2 nM. B12 showed an EC50 of 1.4 nM. In the case of B13, the EC50 is reported as 1.8 nM. Binder B14 has an EC50 of 1.5 nM. For B1, the EC50 was 19 nM. B2 showed an EC50 of 12 nM. Binder B3 has an EC50 of 4.5 nM.

What follows are binders tested against T2, human claudin 18 isoform 2 (claudin …) (assay: cell-based or functional assay).
With B7 the “endocytosis derived cell toxicity EC50” value was 1.43 nM. For B8, the “endocytosis derived cell toxicity EC50” value was 0.96 nM. With B9 the “endocytosis derived cell toxicity EC50” value was 1.26 nM. In the case of B4, the “endocytosis derived cell toxicity EC50” value is reported as 0.71 nM. In the case of B5, the “endocytosis derived cell toxicity EC50” value is reported as 0.81 nM. In the case of B6, the “endocytosis derived cell toxicity EC50” value is reported as 1.15 nM. With B10 the “endocytosis derived cell toxicity EC50” value was 1.07 nM. For B11, the “endocytosis derived cell toxicity EC50” value was 1.09 nM. With B12 the “endocytosis derived cell toxicity EC50” value was 1.12 nM. For B13, the “endocytosis derived cell toxicity EC50” value was 1.14 nM. With B14 the “endocytosis derived cell toxicity EC50” value was 1.08 nM.

Target: T2, human claudin 18 isoform 2 (claudin …)
Experiment: cell-based or functional assay
Remark: another data set of the same source
In the case of B15, the “ADCC EC50, CHO-claudin18.2 cells (human FcγRIIIa reporter bioluminescence)” value is reported as 0.02 nM, the “ADCC EC50, NUGC-4 cells (human FcγRIIIa reporter bioluminescence)” value is reported as 0.06 nM and the “ADCC EC50, PATU8988S cells (human FcγRIIIa reporter bioluminescence)” value is reported as 0.04 nM. The “CDC EC50, CHO-claudin18.2 cells (human serum, flow cytometry)” value was 0.3 nM, the “fold improvement of ADCC EC50 over parental NBL-014, CHO-claudin18.2 cells (human FcγRIIIa reporter bioluminescence)” value was 35 fold and the “fold upshift of maximum ADCC effect over parental NBL-014, NUGC-4 cells (human FcγRIIIa reporter bioluminescence)” value was about 3 fold. For the same binder, the “fold upshift of maximum ADCC effect over parental NBL-014, PATU8988S cells (human FcγRIIIa reporter bioluminescence)” value was about 33 fold. For B16, the “ADCC EC50, CHO-claudin18.2 cells (human FcγRIIIa reporter bioluminescence)” value was 0.73 nM, the “ADCC EC50, NUGC-4 cells (human FcγRIIIa reporter bioluminescence)” value was 0.4 nM and the “ADCC EC50, PATU8988S cells (human FcγRIIIa reporter bioluminescence)” value was 0.12 nM. For the same binder, the “CDC EC50, CHO-claudin18.2 cells (human serum, flow cytometry)” value was 0.22 nM and the “fold improvement of CDC EC50 over PC1 (in-house iMAb36), CHO-claudin18.2 cells (human serum, flow cytometry)” value was about 10 fold.

Source: patent publication US20230067757A1 (NOVAROCK BIOTHERAPEUTICS, published 2023)
